Data on 41 sequences can be found in the nanobody polyreactivity screen of Harvey et al. (2022).

This data set in a line: yeast display, Sf9 membrane polyspecificity reagent, FACS + sequencing; frameworks hold sequencing errors. Summed up: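 Sorting gates, low and high (top ~1%), were placed on anti-HA fluorescence to track expression and on streptavidin fluorescence to track reagent binding. A clone's polyreactivity label is taken from the gate it came out of. The reagent was 10% biotinylated, detergent-solubilized Sf9 membrane, applied for 1 hour at 4 °C to galactose-induced yeast display cells.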
Turning to “QVQLVESGGGLVQAGGSLRLSCAASGSIFKRNAMGWYRQAPVKETELVAAITRSGSSTYYADSVKGRFKISRDNAKNTVYLQFNSLKPEDTSVYYCAAQYESNGYTGYYWGQGTQVSVSS”, the “polyreactivity (PSR sort gate)” value was “high polyreactivity”.

As to “QVQLVESGGGLVQAGGSLRLSCAASGSTFYINTMGRYLQAPGKEREFVAAITWSGGSTYYADSVKGRFTISRDNAKNTVYLQMNSLKPEDTAVYYCAADLYVGDMDYWGQCTQVTVSS”, the “polyreactivity (PSR sort gate)” value is listed as “low polyreactivity”.

On to “QVQLVESGGCIVQAGGSLRLSCAASGLNLDGYAMGWYRQAPGKERELVAAITRSGGRTYYADSVKGRFTISRDNANNTVYLQMNSLKPEDTAVYYCAALGWSVRYRYDYWGQGTQVTVSS”, for which the “polyreactivity (PSR sort gate)” value was “high polyreactivity”.

Consider “QVQLVESGGGLVQAGGSLRLSCAASGRIFSYYAMGWSRQAPGNERELVAAITWSGGRTYYADSVKGRFTISRDNAKNTVYLQMNSLNPEDTAVYYCAADYYYGSLWDNKLGYWGQGTQVTVSS”, for which the “polyreactivity (PSR sort gate)” value is “high polyreactivity”.

Regarding “QVQLVESGGGLVQAGGSLRLSCAASGYIFGINDMAWYIQAPGKERELVAAIRISGGSTYYADSVKGRFTISRDNAKNTVYLQMNSLKPEDTAVYYCNAQDDGGLEWRYEEDDYWGQGTQVTVSS”, the “polyreactivity (PSR sort gate)” value is reported as “low polyreactivity”.

Turning to “QVQLVESGGGLVQAGGSLRLSCAASGGTFYFNAMGWYRQAPGKERELVATIRYSGGSTYYADSVKGRFTISRDNAKNTVYLQMNSLKPEDTAVYYCNARPRYLSPYRPFKYNYWGQGTQVTVSS”, the “polyreactivity (PSR sort gate)” value is “high polyreactivity”.

In the case of “QVQLVESGGGLVQAGGSLRLSCAASGIIFGFNAMGWYRQAPGKERELVAAINGDDSTYYADSVKGRFTISRDTAKNTVYFQMNSLKPEDTAVYYSAARYYRYLTFTGELLVYYWGQGTQVTVSS”, the “polyreactivity (PSR sort gate)” value is “low polyreactivity”.

Consider “QVQLVESGGGLVQAGGSLRLSCAASGRIFSRYAMGWYRQAPGTERELVAAINKSGGSTYYADSVKGRFTISRDNAKNTVYLQMNSLKPEDTAVYYCNAVYYWYKGDYWGQGTQVTVSS”, for which the “polyreactivity (PSR sort gate)” value is reported as “high polyreactivity”.

Consider “QVQLVESGGGLVQAGGSLRLSCAASGFTISVYAMGWYRQAPGKERELVAAISWNGGRTYYAVSVKGRFTISRDNAKNTVYLQMNSLKPEDSAVYYCNKVSGYDVDYWGQGTQVTVSS”, for which the “polyreactivity (PSR sort gate)” value is “high polyreactivity”.

As for “QVQLVESGGGLVQAGGSLRLSCAASGSTFLYNTMGWSRQAPGKERELVATITSRGDRTYYADSVKGRFPISRENAKNTVYLQMNSLKPEDTADYYCAALLYIRSVGYDYWGQGPQVTVSS”, the “polyreactivity (PSR sort gate)” value is given as “low polyreactivity”.

“QVQLVESGGGLVQAGGSLRLSCAASGRTFGLYAMGWYRQAPGKERELVATISVSSGSTYYADSVKGRFTISRDNAKYTVYLQMNSLKPEDTAVYYCNVRYKRNRWQYDYWGQGTQVTVSS”: the “polyreactivity (PSR sort gate)” value is given as “high polyreactivity”.

“QVQLVESGGGLVQAGGSLRLSCAASGSIFYTYTMGWYRQAPGKERELVAAISTRGGSTYYADSVKGRFTISRDNAKNTFYLQMNSLKPEDTAVYYCAAGLQRYRMYYWGQGTQVTVSS”: the “polyreactivity (PSR sort gate)” value is recorded as “high polyreactivity”.

Turning to “QVQLVESGGGLVQAGGSLRLSCAASGSIFSTYAMGWYRQAPGKERELVASITSTGGSTYYADSVKGRFTISRDNAKNTVYLQMNSLKPEDTAVYYCAARYRRTHRYYYAYSTMDYWGQGTQVTVSS”, the “polyreactivity (PSR sort gate)” value is given as “high polyreactivity”.

As for “QVQLVESGGGLFQAGGSLRLICAASGFIFGGSDMGWYRQAPGKERELVAAISRSGGSTYYADYVKGRFTISRDNAKNTVYLQMNSMKREDTAVYYCNSVPRRQGFNYLGQGTQVTVSS”, the “polyreactivity (PSR sort gate)” value is “high polyreactivity”.

As to “QVQLVESGGGLVQAGGSLRLSCAASGRIFGLYAMGWYRQAPGKERELVAAISWSGGRTYYADSVKGRFTISRDNAKNTVYLQMNSLKPEDTAVYYCAARSYYRSQYGFDFWGQGTQVTVSS”, the “polyreactivity (PSR sort gate)” value was “high polyreactivity”.

On to “QVQLVESGGGLVQAGGSLRLSCAASGSNFYYKAMGWYRQAPGKERELVAAITSGDSTNYADSVKGRFTISRDNAKNTVYLQMNSLKPEDTAVYYCAADYLAALTYYRTYDYWGQGTQVTVSS”, for which the “polyreactivity (PSR sort gate)” value is reported as “low polyreactivity”.

On to “QVQLVESGGGLVQAGGSLRLSCAASGRIFSWYAMGWYRQAPGKERELVAAITVRGSTYYADSVKGRFTISRDNAKNTVYLQMNSLKPEDTAVYYCAAGGYPGTTYYGYDYWGQGTQVTVSS”, for which the “polyreactivity (PSR sort gate)” value is on record as “low polyreactivity”.

On to “QVQLVESGRGLVQAGGSLRLSCAASGSTFKDYPMGWYRQAPGKESELVARISTRVGSTYYPDSVKGRFTISRDNAKNTVYLQMNRLNPEDTAVFYCNARWWYPPYYYWGQGTQVSVSS”, for which the “polyreactivity (PSR sort gate)” value is given as “high polyreactivity”.

On to “QVQLVESGGGLVQAGGSLRLSCAASGSTFIDYAMGWYRQAHGKERELVAGISSGDSTDYADSVKGRFTISRDNAKNTVYLQMNSLKPEDTAVYYCNADWNPTERWFYWYTPLGYDYWGQGTQVTVSS”, for which the “polyreactivity (PSR sort gate)” value is listed as “low polyreactivity”.

In the case of “QVQLEESGGGLVQSGGSLRLSCAASGITFARYTMGWYRQAPGKERELVAAISSAGNTYYGDSVKGRFTISRDNAKNTVYLQMNSLKPEDTAVYYCAREYTYYPRWVGYDAYGEDYWGQGTQVTVSS”, the “polyreactivity (PSR sort gate)” value is given as “low polyreactivity”.

As to “QVQLEESGGGLVQAGGSLRLSCAASGRTFYPNAMGWYRQAPGKERELVAAITRSGGRTYYADSVKGRFTISRDNAYYTVYLQMNSLKPEDSAVYYCNADLYYLYYKYEYWGQGTQVTVSS”, the “polyreactivity (PSR sort gate)” value is given as “low polyreactivity”.

“QVQLVESGGGLVQAGGSLRLSCAASGRTFSRYTMGWYRQAPGKEREFVAAISVNGGTTHYADSVKGRFTISRDNAKNTVYLQMNSLKPEDTAVYYCAARNYLARRYGYWGQGTQVTVSS”: the “polyreactivity (PSR sort gate)” value is on record as “high polyreactivity”.

For “QVQLVESGGGLVQAGGSLRLSCAASGRIFSRYTMGWYRQAPGKERELVAAISSRGGSTYYADSVKGRFTISRDNAKNTVYLQMNSLKPEDTAVYYCNTPSYSGSSPYDHWGQGTQVTVSS”, the “polyreactivity (PSR sort gate)” value is listed as “high polyreactivity”.

Take “QVQLVESGGGLVQAGGSLRLSCAASGFTFRAYAMGWYRQAPGKEREFVAAISYSGGSTYYADSVKGRFTISRDNAKNTVDLQMNSLKPEDTAVYYCATVLYSVPRYNYWGQGTQVTVSS”: the “polyreactivity (PSR sort gate)” value is recorded as “high polyreactivity”.

As for “PVQLVESGGGLVQAGGSLRLSCAASGSTFYIYAMGWYRQAPGKERELVAAITSRGTITSYADSVKGRFTISRDNAKNTVYLQMNSLKPEDTAVYYCAADYWQDGIAYWYDYWGQGTQVTVSS”, the “polyreactivity (PSR sort gate)” value was “low polyreactivity”.

With “QDQLVESGGGLVQSGGSLRLSCAASGYIFGPYAMGWYRQAPGKEREFVATISGSVGSTYYADSVKGRFTISRDNGKNTVYLQMNSLKPQDTAVYYCNKDHSVYGYEYWGQGTQVTVSS”, the “polyreactivity (PSR sort gate)” value is recorded as “low polyreactivity”.

Consider “QVQLVESGGGLVQEGGSLRLSCAASASIFRYNAMGWYRQAPGKERELVAAITSRDGSTYYADSVKGRFTISRDNAQNTVYFQMNSLKPEDTAVYYCAVQPDSGNYDSGIYDRVGMDYWGQGTQVTVSS”, for which the “polyreactivity (PSR sort gate)” value is recorded as “low polyreactivity”.

As for “QVQLVESGGGLVQAGGSLRLSCAASGFTFFYYAIRWYRQAPGKEREVVAAISSNGGRTYYADSVKGRFTISRDNAKNTVYLQMYSLKPEDTAVYYCTALRYVVYFDDDYWGQGTQVTVSS”, the “polyreactivity (PSR sort gate)” value is listed as “high polyreactivity”.

For “QVQLVESGGGLVQAGGSLRLSCAASGRIFQQNAMGWYRQAPGKERELVAAISSRGGSTYYADSVKGRFTISRDNAKNTVYLQMNSLKPEDTAVYYCARQYQSYRYRGYDYWGQGTQVTVSS”, the “polyreactivity (PSR sort gate)” value is listed as “low polyreactivity”.

For the sequence “QVQLVESGGGLVQAGGSLRLSCAASGNIFTYYVMGWYRQAPGKQRELVAAISRRGGSTYYADSVKGRFIISRDNAKHTVYLQMNSLKPEDTAVYYCAKKYPRDMDYWGQGTQVTVSS”, the “polyreactivity (PSR sort gate)” value is “high polyreactivity”.

“QVQLVESGGGLVQAGGSLRLSCAASGLTLPSYVMGCYRQAPGKERELVAAISNSGGSTYYADSVKGRFTISRDTAKNTVYLQMNSLKPEDTAVYYCAAVYGYLLYFLLLPFTRDDYWGQGTQVTVSS”: the “polyreactivity (PSR sort gate)” value is “high polyreactivity”.

With “QVQLVESGGGLVQAGGSLRCSWAASGFIFTPYAMGWYRQAPGTEREFVATITWSGGSTNYADSVKGRFTISRDNAKNTVYLPMNSLKPDDTAVYYCNADTWSPNDYWGQGTQVTVSS”, the “polyreactivity (PSR sort gate)” value is “low polyreactivity”.

On to “QVQLGESGGGLVQAGGSLRLSCAASGFTFRIYTMGWYRQAPGKERELVAAISSRGGSTYYADSVKGRFTISRDNAKNTVYLQMNSLKPEDTAVYYCAASGRVYSSGYDYWGQGTQVTVSS”, for which the “polyreactivity (PSR sort gate)” value was “high polyreactivity”.

Take “QVQLVESGGGLVQAGGSLRLSCAASGRTFSVNAMGWYRPAPGKERELVAAISWDGGSTYYADSVKGRFTISRDNAKNTVYLQMNSLKPEDTAVYYCNKDLYYAYDYWGQGTQVTVSS”: the “polyreactivity (PSR sort gate)” value is “low polyreactivity”.

Consider “QVQLVESGGGLVQAGGSLRLSSAASGFTFPAYTMGWSRQAPGKERELVAAITSSGGNTYYADSVKGRFTISRDNAKNTVYLQMNSLKPEDTAVYYCAADWDYPYDEAVSKDIDYDYWGQGTQVTVSS”, for which the “polyreactivity (PSR sort gate)” value is recorded as “low polyreactivity”.

As for “QVQLVESGGGLVQAGGSLRLSCAASGSTFTINVMGWYSQAPGKEREVVAAINGGGRTNYADSVKGRFTISRDHAKNTVNLQMNSLKPEDTAVYYCAADGLSNVRQMDYWGQGTQVTVSS”, the “polyreactivity (PSR sort gate)” value is on record as “low polyreactivity”.

Regarding “QVQLVESGGGLVQAGGSLRLSCAASGSIFFSSAMGWSRQEPGKERELVAAISSGASTYYADSVKGRFTISRDNAKNTVYLQMNSLKPEDTAVYYCAARGYRLVPVDFYYWGQGTQVTVSS”, the “polyreactivity (PSR sort gate)” value is “low polyreactivity”.

Consider “QVQLVDSGGGLVQAGGSLRVSCAASGNTFVTNAMGWSRQAPGKERELDAAITASVTSTYYADSVKGRFTISRDNAKITVYLQLNSLKPEDPAVYYCAAKTYSRKRVRMDYWGQGTQVTVSS”, for which the “polyreactivity (PSR sort gate)” value is given as “high polyreactivity”.

Regarding “QVQIVESGGGLVQAGGSLRLSCAASGYTFRFNAMGWYRQAPGKEREFVAAIDFGGAGTYYADSVKGRFTISRDNAKNTVYLQMNSLKPEDTAVYYCNARDGVTTEFDYWGQGTQVTVSS”, the “polyreactivity (PSR sort gate)” value is reported as “low polyreactivity”.

On to “QVQLVESVGGLVQAGGSLRLSCAASGFTFGYYAMGWYRQAPGKERELVASISRSGGSTNYADSVKGRFTISRDNAKNTVYLQMNSLKPEDTAVYYCAKPLWDPKYDYWGQGTQVTVSS”, for which the “polyreactivity (PSR sort gate)” value is “high polyreactivity”.

In the case of “QVQLVESGGGLVQAGGSLRLSCAASGFIFRYYAMGWYRQAPGKERELVAAISWSGSSTYYADSVKGRFTISRDNAKNTVYLQMNSLKPEDTAVYYCNAVTRNARDYWGQGTLVTVSS”, the “polyreactivity (PSR sort gate)” value is “high polyreactivity”.
